Results on 1 substance are retold here after PMC3873893.

In this experiment the target is GST-WWCA (bovine N-WASP WWCA, A403-D505) (bovine) (UniProt Q95107).
UniProt Q95107, sequence (Q95107 403-505): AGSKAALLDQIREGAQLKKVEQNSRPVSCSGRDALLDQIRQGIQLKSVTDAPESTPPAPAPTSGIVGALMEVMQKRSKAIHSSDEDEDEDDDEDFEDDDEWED

For “rabbit skeletal muscle actin (Mg-ATP actin; filament barbed ends) (from UniProt P68135 1-377) (natural protein)”, the barbed-end rate of filaments tethered to WWCA nanofibers, 1 μM actin, 1 mM Mg^2+ worked out at 21.4 subunits/s.
